Assay [1] concerns the target T1, human podocalyxin (human).
T1 chain: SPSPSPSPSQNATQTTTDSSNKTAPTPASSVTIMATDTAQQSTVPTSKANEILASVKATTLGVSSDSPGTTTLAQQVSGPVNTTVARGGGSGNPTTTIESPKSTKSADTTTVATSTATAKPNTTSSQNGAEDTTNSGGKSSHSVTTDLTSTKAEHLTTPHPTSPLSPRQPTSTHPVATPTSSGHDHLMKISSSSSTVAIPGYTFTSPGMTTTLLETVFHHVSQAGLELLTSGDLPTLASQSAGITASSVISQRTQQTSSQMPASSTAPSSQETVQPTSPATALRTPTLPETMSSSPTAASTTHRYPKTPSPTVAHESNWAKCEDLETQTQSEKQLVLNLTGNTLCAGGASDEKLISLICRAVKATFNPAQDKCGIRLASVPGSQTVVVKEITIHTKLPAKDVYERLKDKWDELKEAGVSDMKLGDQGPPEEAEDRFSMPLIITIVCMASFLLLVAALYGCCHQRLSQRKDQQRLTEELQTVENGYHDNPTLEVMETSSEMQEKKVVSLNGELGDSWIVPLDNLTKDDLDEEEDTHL
Nature of the assay: flow cytometry, isotype control, MDA-MB-231 cells. (Flow cytometry measures light scatter and fluorescence of single cells or particles in a stream.)

In assay [2] the target is T1, human podocalyxin. The experiment in a line: flow cytometry, isotype control, T47-D cells.
Assay [3] concerns the target T1, human podocalyxin. Nature of the assay: flow cytometry, isotype control, A172 cells.
The target in assay [4] is T1, human podocalyxin. Nature of the assay: flow cytometry, isotype control, SKOV3 cells.
In assay [5] the target is T1, human podocalyxin. The experiment in a line: flow cytometry, isotype control, OVCAR10 cells.
Assay [6] deals with T1, human podocalyxin. Nature of the assay: flow cytometry, isotype control, MCF7 cells.
Assay [7] addresses T1, human podocalyxin. Nature of the assay: flow cytometry, isotype control, 293 HEK cells.
The target of assay [8] is T1, human podocalyxin. Nature of the assay: flow cytometry, isotype control, HUVEC cells.
For assay [9], the target named is T1, human podocalyxin. The experiment in a line: flow cytometry, isotype control, OVCAR3 cells.
Assay [10] deals with T1, human podocalyxin. Nature of the assay: flow cytometry, isotype control, CaOV3 cells.
For assay [11], the target named is T1, human podocalyxin. The experiment in a line: flow cytometry, control antibody, T47-D cells.
Assay [12] addresses T1, human podocalyxin. The experiment in a line: flow cytometry, control antibody, HUVEC cells.
Assay [13] concerns the target T1, human podocalyxin. Nature of the assay: flow cytometry, control antibody, OVCAR3 cells.
For assay [14], the target named is T1, human podocalyxin. Nature of the assay: flow cytometry, control antibody, OVCAR10 cells.
Assay [15] concerns the target T1, human podocalyxin. The experiment in a line: flow cytometry, control antibody, MCF7 cells.
Assay [16] concerns the target T1, human podocalyxin. The experiment in a line: flow cytometry, control antibody, 293 HEK cells.
Assay [17] concerns the target T1, human podocalyxin. The experiment in a line: flow cytometry, control antibody, MDA-MB-231 cells.
Assay [18] deals with T1, human podocalyxin. Nature of the assay: flow cytometry, control antibody, A172 cells.
The target in assay [19] is T1, human podocalyxin. Nature of the assay: flow cytometry, control antibody, CaOV3 cells.
In assay [20] the target is T1, human podocalyxin. The experiment in a line: flow cytometry, control, 1:125, hPodo/MDA-MB-231 transient transfectants.
Assay [21] has as its target T1, human podocalyxin. Nature of the assay: flow cytometry, control, 2:15 (so in the source), hPodo/MDA-MB-231 transient transfectants.
In assay [22] the target is T1, human podocalyxin. The experiment in a line: flow cytometry, control, 1:5, hPodo/MDA-MB-231 transient transfectants.
Assay [23] concerns the target T1, human podocalyxin. The experiment in a line: flow cytometry, control, 1:125, MDA-MB-231 cells.
Assay [24] deals with T1, human podocalyxin. Nature of the assay: flow cytometry, control, neat, hPodo/MDA-MB-231 transient transfectants.
In assay [25] the target is T1, human podocalyxin. The experiment in a line: flow cytometry, control, 2:15 (so in the source), MDA-MB-231 cells.
In assay [26] the target is T1, human podocalyxin. The experiment in a line: flow cytometry, control, neat, MDA-MB-231 cells.
Assay [27] deals with T1, human podocalyxin. Nature of the assay: flow cytometry, control, 1:5, MDA-MB-231 cells.
The target of assay [28] is T1, human podocalyxin. The experiment in a line: flow cytometry, supernatant 1:5, hPodo/MDA-MB-231 transient transfectants.
For assay [29], the target named is T1, human podocalyxin. Nature of the assay: flow cytometry, supernatant neat, MDA-MB-231 cells.
Assay [30] deals with T1, human podocalyxin. The experiment in a line: flow cytometry titration on 293-6E cells (endogenous podocalyxin), 24 hours at 4 C.
Assay [31] concerns the target T1, human podocalyxin. Nature of the assay: kinetic exclusion assay (KinExA 3200), MDA-MB-231 cells.
The target of assay [32] is T1, human podocalyxin. The experiment in a line: flow cytometry, supernatant neat, hPodo/MDA-MB-231 transient transfectants.
The target in assay [33] is T1, human podocalyxin. Nature of the assay: flow cytometry, supernatant 2:15 (so in the source), hPodo/MDA-MB-231 transient transfectants.
Assay [34] has as its target T1, human podocalyxin. The experiment in a line: flow cytometry, supernatant 2:15 (so in the source), MDA-MB-231 cells.
The target of assay [35] is T1, human podocalyxin. Nature of the assay: flow cytometry, supernatant 1:5, MDA-MB-231 cells.
Assay [36] concerns the target T1, human podocalyxin. Nature of the assay: flow cytometry, supernatant 1:125, MDA-MB-231 cells.
Assay [37] concerns the target T1, human podocalyxin. The experiment in a line: flow cytometry titration on 293-6E cells (endogenous podocalyxin), 48 hours at 4 C.
Assay [38] has as its target T1, human podocalyxin. Nature of the assay: flow cytometry, supernatant 1:125, hPodo/MDA-MB-231 transient transfectants.

Regarding MsIgG2a (antibody), the Live cell GeoMean FL (geometric mean fluorescence units) in [1] is 478; in assay [2] it was 787; in assay [3], 797; in assay [4] it was 485; in [5], 618; in [6], 1130. For the same molecule, the Live cell GeoMean FL (geometric mean fluorescence units) in [7] was determined as 556; in [8] it was 484; in assay [9], 708; in [10] it was 892.

With Control Rb/Hu IgG1 (antibody), the Live cell GeoMean FL (geometric mean fluorescence units) came to 667 in assay [11]; 489 in [12]; 629 in assay [13]; 653 in assay [14]; 657 in assay [15]; 446 in [16]. The Live cell GeoMean FL (geometric mean fluorescence units) in [17] stood at 477; in [18], 644; in assay [19], 767.

Consider Rb IgG (antibody), for which the FACS signal (name not given) is 645 in assay [20]; 617 in [21]; 660 in [22]; 431 in assay [23]; 762 in assay [24]; 438 in [25]. Further, the FACS signal (name not given) in assay [26] was 574; in [27], 467.

B1: huPodo 83 1:1 (humanized anti-podocalyxin antibody 83, version 1) (antibody, V domains shown)
VH: EVQLVESGGGLVQPGGSLRLSCAASGIDLSSYAMGWVRQAPGKGLEWVSFIYASGSIFYASWAKGRFTISRDNSKNTLYLQMNSLRAEDTAVYYCARAGYYFGGNYDLNLWGQGTLVTVSS
VL: DIQMTQSPSSLSASVGDRVTITCQASQSISNYLAWYQQKPGKVPKLLIYRASTLASGVPSRFSGSGSGTDFTLTISSLQPEDVATYYCQQGYVSNNLDNIFGGGTEVVVK
Broadly, the EC50 is the concentration giving half of the maximal effect. Higher therefore signals a need for much substance. As usually defined, the Kd is the constant that tells how readily two partners part at equilibrium. Usually IC50 stands for the concentration that inhibits the measured activity by half. Read a low IC50 as greater potency. Consider B1, for which the “FACS signal (name not given)” value in assay [28] was found to be 128000; in assay [29], 125000; in assay [32] it was 124000; in [33], 157000; in [34], 91500; in [35], 112000. Moreover, the “FACS signal (name not given)” value in assay [36] worked out at 39400; in [38], 61600. In assay [30], this molecule displayed an EC50 of 0.0331 µg/mL. The same molecule displayed a Kd in assay [31] of 0.26 nM. Besides, the IC50 in assay [37] stood at 0.0355 µg/mL.

B2: huPodo 83 2:1 (humanized anti-podocalyxin antibody 83, version 2) (antibody, V domains shown)
VH: EVQLVESGGGLVQPGGSLRLSCAASGIDLSSYAMGWVRQAPGKGLEWVSFIYASGSIFYASWAKGRFTISRDNSNTLYLQMNSLRAEDTAVYYCARAGYYFGGNYDLNLWGQGTLVTVSS
VL: B1 VL
B2: the “FACS signal (name not given)” value in assay [28] amounted to 108000; in assay [29] it was 123000; in assay [32], 139000; in [33], 79400; in assay [34], 67200; in assay [35], 105000. The “FACS signal (name not given)” value worked out at 22300 in assay [36] and 37700 in [38]. This molecule also had an EC50 in assay [30] of 0.0519 µg/mL. In addition, the half-maximal inhibitory concentration (IC50) in assay [37] was determined as 0.052 µg/mL.

B3: Mouse anti-podocalyxin antibody 3G2 (antibody, V domains shown)
VH: EVQLQQSGPELVKPGASVKMSCKASGYTFTSYVMHWVKQKPGQGLEWIGYIHPYNDGTNYNEKFKGKATLTSDKSSNTAYMELSSLTSEDSAVYYCARSWDWYFDVWGAGTTVTVSS
VL: QIVLTQSPAIMSASPGEKVTMTCSANSNVRYIHWHQQKSGTSPKRWIYDTSKLSSGVPARFSGSGSGTSYSLTISNMEAEDAATYYCQQWISNPLTFGAGTKLELK
Regarding B3, in assay [31], the Kd was found to be 3.34 nM.

For the origin of these results see patent US20160264663A1 (published 2016).
